Results as given in patent US20150344535A1 (UNIVERSITY OF QUEENSLAND, published 2015).

T1: p75^FL on transfected HEK293 cells (UniProt P07174 30-425)
T1 construct: whole, on cells; also called p75^NTR
T1 sequence (looked up): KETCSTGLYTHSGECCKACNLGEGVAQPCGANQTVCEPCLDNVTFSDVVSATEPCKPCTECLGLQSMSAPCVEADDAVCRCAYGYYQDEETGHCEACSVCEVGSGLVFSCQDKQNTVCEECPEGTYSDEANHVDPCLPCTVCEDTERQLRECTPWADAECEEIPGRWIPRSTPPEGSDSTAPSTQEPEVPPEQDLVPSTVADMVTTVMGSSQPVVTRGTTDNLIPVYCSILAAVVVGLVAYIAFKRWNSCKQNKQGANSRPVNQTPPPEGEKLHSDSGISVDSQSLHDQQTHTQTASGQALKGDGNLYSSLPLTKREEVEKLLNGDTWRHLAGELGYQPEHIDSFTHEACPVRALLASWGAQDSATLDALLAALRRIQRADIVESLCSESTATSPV

T2: p75^Δ-JUX (UniProt P07174 30-425)
T2 construct: whole, on cells; In HEK293 lysate in the co-immunoprecipitation, on HEK293 cells in the NGF-FITC assays; also called p75^NTR with an intracellular juxtamembrane deletion
T2 sequence (looked up): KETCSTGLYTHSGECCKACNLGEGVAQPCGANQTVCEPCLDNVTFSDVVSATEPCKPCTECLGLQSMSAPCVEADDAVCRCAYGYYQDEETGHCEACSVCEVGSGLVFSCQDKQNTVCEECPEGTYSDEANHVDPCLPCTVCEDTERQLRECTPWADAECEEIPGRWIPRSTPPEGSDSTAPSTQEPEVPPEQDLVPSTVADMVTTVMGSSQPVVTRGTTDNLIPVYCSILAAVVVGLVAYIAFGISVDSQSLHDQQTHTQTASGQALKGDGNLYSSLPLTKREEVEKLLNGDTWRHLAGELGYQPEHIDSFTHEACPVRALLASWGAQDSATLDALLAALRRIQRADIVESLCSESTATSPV


Legend:
[1] = target: T1, p75^FL on transfected HEK293 cells; assay: flow cytometry, 26 nM NGF-FITC 60 min on ice, transfected HEK293 cells
Experimental: (§1) To investigate NGF binding, PC12 or transfected HEK293 cells were serum starved for 4 hours, harvested, washed with Dulbecco's Modified Eagle Medium (DMEM), and counted. When used, c29 or scrambled peptide were added to cultures for the third hour of the serum starvation procedure.

p75^Δ-JUX [2] = target: T2, p75^Δ-JUX; assay: as above
Experimental: as §1

TrkAK538A [3] = target: T3, TrkAK538A; assay: as above
T3 construct: whole, on cells; On transfected HEK293 cells in flow cytometry; in HEK293 lysates in the co-immunoprecipitations; also called TrkK538A
Experimental: as §1

TrkAK538A [4] = target: T3, TrkAK538A; assay: real-time flow cytometry, Hill-Slope association curve, TrkAK538A-expressing HEK293 cells pre-treated with c29
[5] = target: T1, p75^FL on transfected HEK293 cells; assay: flow cytometry competition against 26 nM NGF-FITC, transfected HEK293 cells
Experimental: as §1

p75^Δ-JUX [6] = target: T2, p75^Δ-JUX; assay: as above
Experimental: as §1

TrkAK538A [7] = target: T3, TrkAK538A; assay: as above
Experimental: as §1

[8] = target: T4, TrkAK538A and p75^Δ-JUX co-expressed on HEK293 cells (UniProt P07174 30-425); assay: flow cytometry competition against 26 nM NGF-FITC, co-transfected HEK293 cells
T4 construct: whole, on cells; Two receptors on the same cells; also called TrkAK538A + p75^ΔJUX
Experimental: as §1

[9] = target: T5, TrkAK538A and p75^FL co-expressed on HEK293 cells (UniProt P07174 30-425); assay: as above
T5 construct: whole, on cells; Two receptors on the same cells; also called TrkAK538A + p75^FL
Experimental: as §1

| Binder | % of cells with fluorescence intensity above background [1] | % of cells with fluorescence intensity above background (p75^Δ-JUX [2]) | % of cells with fluorescence intensity above background (TrkAK538A [3]) | fold faster association rate against untreated TrkAK538A-expressing cells (TrkAK538A [4]) | excess of unlabelled NGF required for NGF-FITC binding to fall to background fluorescence [5] | excess of unlabelled NGF required for NGF-FITC binding to fall to background fluorescence (p75^Δ-JUX [6]) | excess of unlabelled NGF required for NGF-FITC binding to fall to background fluorescence (TrkAK538A [7]) | excess of unlabelled NGF required for NGF-FITC binding to fall to background fluorescence [8] | excess of unlabelled NGF required for NGF-FITC binding to fall to background fluorescence [9] |
| --- | --- | --- | --- | --- | --- | --- | --- | --- | --- |
| NGF-FITC (ligand, mouse, UniProt P01139 122-239, looked up, conjugated to FITC, also called fluorescently labelled NGF; FITC-NGF) SSTHPVFHMGEFSVCDSVSVWVGDKTTATDIKGKEVTVLAEVNINNSVFRQYFFETKCRASNPVESGCRGIDSKHWNSYCTTTHTFVKALTTDEKQAAWRFIRIDTACVCVLSRKATR | 80% | 80% | 80% | ~3 fold |  |  |  |  |  |
| unlabelled NGF (ligand, mouse, UniProt P01139 122-239, looked up, also called unlabeled NGF) SSTHPVFHMGEFSVCDSVSVWVGDKTTATDIKGKEVTVLAEVNINNSVFRQYFFETKCRASNPVESGCRGIDSKHWNSYCTTTHTFVKALTTDEKQAAWRFIRIDTACVCVLSRKATR |  |  |  |  | 1000 fold | 1000 fold | 1000 fold | 1000 fold | 1000 fold |
